Read-outs that look alike come from different tables or passages of the source.
T1: human SLC34A2 (human, UniProt O95436 1-690)
T1 sequence (looked up): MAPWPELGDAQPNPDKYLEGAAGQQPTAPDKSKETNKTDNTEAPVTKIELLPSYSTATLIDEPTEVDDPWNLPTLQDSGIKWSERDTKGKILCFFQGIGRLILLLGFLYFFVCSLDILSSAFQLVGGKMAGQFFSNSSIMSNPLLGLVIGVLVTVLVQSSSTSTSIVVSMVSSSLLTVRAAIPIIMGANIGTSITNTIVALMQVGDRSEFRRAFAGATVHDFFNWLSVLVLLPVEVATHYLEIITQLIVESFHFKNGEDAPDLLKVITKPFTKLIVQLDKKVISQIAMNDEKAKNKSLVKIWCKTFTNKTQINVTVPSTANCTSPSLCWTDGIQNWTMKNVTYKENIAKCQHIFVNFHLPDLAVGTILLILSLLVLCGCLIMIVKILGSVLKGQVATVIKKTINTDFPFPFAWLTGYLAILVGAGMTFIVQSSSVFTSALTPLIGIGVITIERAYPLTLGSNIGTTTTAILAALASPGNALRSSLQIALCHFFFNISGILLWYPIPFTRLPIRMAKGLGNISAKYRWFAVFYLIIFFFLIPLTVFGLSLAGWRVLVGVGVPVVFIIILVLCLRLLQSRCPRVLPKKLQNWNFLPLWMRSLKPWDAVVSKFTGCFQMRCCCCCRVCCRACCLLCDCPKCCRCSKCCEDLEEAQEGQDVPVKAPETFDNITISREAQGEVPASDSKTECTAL

T2: Rhesus SLC34A2 (Rhesus, UniProt F7HDA3 1-690)
T2 construct: whole, on cells
T2 sequence: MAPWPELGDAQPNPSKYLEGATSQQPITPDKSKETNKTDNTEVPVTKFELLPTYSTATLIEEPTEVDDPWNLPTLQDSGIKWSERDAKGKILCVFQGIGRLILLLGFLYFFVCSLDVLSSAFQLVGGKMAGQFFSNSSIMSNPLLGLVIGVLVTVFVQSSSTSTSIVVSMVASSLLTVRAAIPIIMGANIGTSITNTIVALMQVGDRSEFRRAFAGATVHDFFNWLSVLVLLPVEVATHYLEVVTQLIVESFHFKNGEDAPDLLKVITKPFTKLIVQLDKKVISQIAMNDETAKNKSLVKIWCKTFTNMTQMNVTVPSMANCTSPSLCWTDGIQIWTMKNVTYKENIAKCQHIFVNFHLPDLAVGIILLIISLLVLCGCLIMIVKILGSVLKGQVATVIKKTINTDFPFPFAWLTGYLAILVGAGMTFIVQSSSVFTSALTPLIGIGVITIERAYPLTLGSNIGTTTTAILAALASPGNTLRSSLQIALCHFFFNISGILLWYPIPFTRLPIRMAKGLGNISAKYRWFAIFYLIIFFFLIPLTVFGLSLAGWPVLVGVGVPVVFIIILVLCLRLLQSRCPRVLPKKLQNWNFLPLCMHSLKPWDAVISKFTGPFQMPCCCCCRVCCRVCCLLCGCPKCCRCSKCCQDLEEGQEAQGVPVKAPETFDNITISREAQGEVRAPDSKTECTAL

B1: xi71F7D4 hIgG1 (antibody, V domains shown)
VH: DVKLVESGGDLVKLGGSLKLSCAASGFTFSNYYMSWVRQTPEKRLELVAVINSNGGTTYYPDNMKGRFTISRDNAKNTLYLQTSSLKSEDTALYYCGRHEHYYGTNIAWFAYWGQGTLVTVSA
VL: DIVMTQSHKFMSTSVGDRVSITCKASQDVTTAVAWYQQKPGQSPKLLIYWASTRHTGVPDRFTGSGSGTDHTLTISSVQAEDLALYYCQQHYSTPVTFGGGTKLEIK
notes: chimeric, hIgG1
B2: 63A11D5B4 VH_P1/VL hIgG1 (antibody, V domains shown)
VH: QVQLQQPGAELVKPGASVKMSCRTSGYTFITYNMHWVKQTPGQGREWIGAIYPGSGDTSYNQKFKGKATLTADKSSSTAYMQLNSLTSEDSAVYYCSISTIITTGAVDYWGQGTSVTVAS
VL: DIVMTQSHKFMSTSVGDRVSITCKASQDVGTAVAWYQQKAGQSPKLLIYWTSTRHTGVPDRFTGSGSGTDFTLIIRSLQSEDLADYFCQQYSRIPLTFGSGTKLEIK
notes: PTM-derisked chimeric, hIgG1; that P1 is the SG version follows from the humanized .p1 chains; also called 63A11D5B4.p1 hIgG1
B3: 91C9F1.p1 hIgG1 (antibody, V domains shown)
VH: EVQLQQSGPELVKPGTSVKISCKTSGFFFTEYIIHWVKQSHGRSLEWIGGIIPNNDVTNYKQNFRGKAALTADKSSNTAYMELRSLTSEDSAVYYCARWRNAYYSAMDSWGQGTSVTVSS
VL: DIVVTQSHKFMSTSLGDRVSITCTASQDVGTAVAWYQQKPGHSPKLLIYWASTRHTGVPERFTGSGSGTDFTLTITNVQSEDLADYFCQQYRTSPLTFGVGTKLELK
notes: PTM-derisked chimeric, hIgG1; also called 91C9F1.pl hIgG1

Tests used:
human SLC34A2 [1] = biological target: T1, human SLC34A2; test: FACS, OVCAR3 cells
human SLC34A2 [2] = biological target: T1, human SLC34A2; test: FACS, OVCAR3 cells
How it was run: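 Flow cytometry binding: cells (OVCAR3, or HEK293 transfected with human SLC34A2) exposed 60 min at 4° C to chimeric hIgG1, 8-point 4-fold series starting 200 nM. Washed, stained 30 min at 4° C with fluorescent anti-human secondary, then analysed.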

Rhesus SLC34A2 [3] = biological target: T2, Rhesus SLC34A2; test: FACS, HEK293/Rhesus SLC34A2 cells
human SLC34A2 [4] = biological target: T1, human SLC34A2; test: cell-based or functional assay
human SLC34A2 [5] = biological target: T1, human SLC34A2; test: FACS, HEK293/human SLC34A2 cells
Method: Briefly, OVCAR3 cells or HEK293 cells expressing human SLC34A2 were incubated with chimeric antibodies (from 200 nM, 4 folds dilution, 8 points). After incubation at 4° C. for 60 minutes, the cells were washed with FACS buffer twice, then stained with fluorescent conjugated secondary antibody at 4° C. for 30 minutes. After that the cells were washed twice and analyzed by flow cytometry.

human SLC34A2 [6] = biological target: T1, human SLC34A2; test: FACS, RMG-1 cells
How it was run: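 Flow-cytometric binding of chimeric antibodies (8-point, 4-fold dilutions from 200 nM) to RMG-1 cells, 60 min at 4° C, followed by fluorescent secondary antibody for 30 min at 4° C.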

human SLC34A2 [7] = biological target: T1, human SLC34A2; test: cell-based or functional assay; remark: listed apart in the source
human SLC34A2 [8] = biological target: T1, human SLC34A2; test: FACS, RMG-1 cells; remark: listed apart in the source
Method: (§1) In another testing, cell based binding of hu Abs on human SLC34A2 expressing cells were assessed using flow cytometry. Briefly, the HEK293/H_SLC34A2, OVCAR3 and RMG-1 cells were incubated with hu Abs. After incubation at 4° C. for 60 minutes, the cells were washed with FACS buffer twice, then stained with fluorescent conjugated secondary antibody at 4° C. for 30 minutes. After that the cells were washed twice and analyzed by flow cytometry.

human SLC34A2 [9] = biological target: T1, human SLC34A2; test: FACS, OVCAR3 cells; remark: listed apart in the source
Method: as §1

human SLC34A2 [10] = biological target: T1, human SLC34A2; test: cell-based or functional assay; remark: listed apart in the source
human SLC34A2 [11] = biological target: T1, human SLC34A2; test: FACS, OVCAR3 cells; remark: listed apart in the source
human SLC34A2 [12] = biological target: T1, human SLC34A2; test: FACS, HEK293/human SLC34A2 cells; remark: listed apart in the source
Method: as §1

Rhesus SLC34A2 [13] = biological target: T2, Rhesus SLC34A2; test: FACS, HEK293/Rhesus SLC34A2 cells; remark: listed apart in the source
human SLC34A2 [14] = biological target: T1, human SLC34A2; test: FACS, OVCAR3 cells; remark: listed apart in the source
Rhesus SLC34A2 [15] = biological target: T2, Rhesus SLC34A2; test: FACS, HEK293/Rhesus SLC34A2 cells; remark: listed apart in the source
human SLC34A2 [16] = biological target: T1, human SLC34A2; test: FACS, HEK293/human SLC34A2 cells; remark: listed apart in the source
Method: The PTM-derisked VH chains were first tested for their impact on target binding. Cell based binding of PTM Abs on human SLC34A2 expressing cells were assessed using flow cytometry. Briefly, the HEK293/H_SLC34A2 cells were incubated with PTM Abs (from 200 nM, 4 folds dilution, 8 points). After incubation at 4° C. for 60 minutes, the cells were washed with FACS buffer twice, then stained with fluorescent conjugated secondary antibody at 4° C. for 30 minutes. After that the cells were washed twice and analyzed by flow cytometry.

human SLC34A2 [17] = biological target: T1, human SLC34A2; test: FACS, OVCAR3 cells; remark: listed apart in the source

Molecule	EC50 (human SLC34A2 [8]) [nM]	Top (human SLC34A2 [8]) [MFI]	EC50 (human SLC34A2 [9]) [nM]	ADCC reporter EC50 (human SLC34A2 [10]) [nM]	ADCC reporter Top (MFI) (human SLC34A2 [10])	EC50 (human SLC34A2 [12]) [nM]	Top (human SLC34A2 [12]) [MFI]	EC50 (Rhesus SLC34A2 [13]) [nM]	Top (MFI) (Rhesus SLC34A2 [13])	EC50 (human SLC34A2 [14]) [nM]	Top (MFI) (human SLC34A2 [14])	EC50 (Rhesus SLC34A2 [15]) [nM]	Top (MFI) (Rhesus SLC34A2 [15])	EC50 (human SLC34A2 [16]) [nM]	Top (MFI) (human SLC34A2 [16])	other results
hIgG1 Isotype (antibody)																EC50 (human SLC34A2 [1]): 2900 nM; Top (MFI) (human SLC34A2 [1]): 1570 MFI
B1																EC50 (human SLC34A2 [2]): 7.86 nM; Top (MFI) (human SLC34A2 [2]): 28900 MFI; Top (MFI) (Rhesus SLC34A2 [3]): 5.4e+06 MFI; cytotoxicity EC50 (human SLC34A2 [4]): 0.83 nM; cytotoxicity Inhibition % (human SLC34A2 [4]): 99.4%; EC50 (human SLC34A2 [5]): 2.11 nM; Top (MFI) (human SLC34A2 [5]): 47900 MFI; EC50 (human SLC34A2 [6]): 8.36 nM; Top (MFI) (human SLC34A2 [6]): 10200 MFI; ADCC reporter EC50 (human SLC34A2 [7]): 3.6 nM; ADCC reporter Top (MFI) (human SLC34A2 [7]): 247000 MFI
B2	12.5	11700	4.03	2.83	114000	2.79	35600	3.9	39400	7.5	75200	0.7	13800	1.48	30400	EC50 (human SLC34A2 [11]): 4.03 nM; Top (MFI) (human SLC34A2 [11]): 28200 MFI
B3	1.09	9690	1.1	3.31	143000	2.29	32300	2.8	26400	1	63500	0.8	7970	0.68	28200	Top (human SLC34A2 [9]): 19500 MFI; EC50 (human SLC34A2 [17]): 2.29 nM; Top (MFI) (human SLC34A2 [17]): 32300 MFI
